In patent publication US20070161569A1 (GENERAL HOSPITAL, published 2007):
Non-standard residues stand in square brackets, D forms with d. No end group written: not given here. hArg = N=C(N)NCCCC[C@H](N)C(=O)O; Ac5c = NC1(C(=O)O)CCCC1; Deg = CCC(N)(CC)C(=O)O; Ac3c = NC1(C(=O)O)CC1; Aib = CC(C)(N)C(=O)O

Legend:
[1] = target: T1, P1R-delNt, a recombinant human PTH-1 receptor construct in which most of the amino-terminal extracellular … (human, UniProt Q03431 23-593, limits assumed); assay: cell-based or functional assay
T1 sequence (looked up): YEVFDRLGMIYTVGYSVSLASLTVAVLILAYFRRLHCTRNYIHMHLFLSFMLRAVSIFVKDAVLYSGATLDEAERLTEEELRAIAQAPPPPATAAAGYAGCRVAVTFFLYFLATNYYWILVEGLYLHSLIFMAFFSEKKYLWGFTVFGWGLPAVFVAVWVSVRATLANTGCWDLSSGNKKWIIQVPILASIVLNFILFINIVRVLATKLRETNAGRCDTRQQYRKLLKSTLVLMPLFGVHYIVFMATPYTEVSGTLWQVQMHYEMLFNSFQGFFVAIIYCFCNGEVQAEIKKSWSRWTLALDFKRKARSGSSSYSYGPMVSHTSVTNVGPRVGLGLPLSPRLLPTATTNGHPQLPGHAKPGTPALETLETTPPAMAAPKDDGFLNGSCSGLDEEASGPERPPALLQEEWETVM

[2] = target: T2, recombinant P1R chimera expressed in HKRK-B28 cells (opossum P1R from the N-terminus to the mid region of … (opossum; rat, UniProt P25107 27-288; P25961 295-591, limits assumed); assay: competition binding to the P1R (HKRK-B28 cells by the FIG. 3 legend)
T2 construct: domain: N-terminus to the mid region of TM3;domain: mid region of TM3 to the C-terminus; also called PTH-1 receptor; receptor of HKRK-B28 cells
T2 sequence (P25107 other isoform, or with tags, fused parts or gaps limits assumed): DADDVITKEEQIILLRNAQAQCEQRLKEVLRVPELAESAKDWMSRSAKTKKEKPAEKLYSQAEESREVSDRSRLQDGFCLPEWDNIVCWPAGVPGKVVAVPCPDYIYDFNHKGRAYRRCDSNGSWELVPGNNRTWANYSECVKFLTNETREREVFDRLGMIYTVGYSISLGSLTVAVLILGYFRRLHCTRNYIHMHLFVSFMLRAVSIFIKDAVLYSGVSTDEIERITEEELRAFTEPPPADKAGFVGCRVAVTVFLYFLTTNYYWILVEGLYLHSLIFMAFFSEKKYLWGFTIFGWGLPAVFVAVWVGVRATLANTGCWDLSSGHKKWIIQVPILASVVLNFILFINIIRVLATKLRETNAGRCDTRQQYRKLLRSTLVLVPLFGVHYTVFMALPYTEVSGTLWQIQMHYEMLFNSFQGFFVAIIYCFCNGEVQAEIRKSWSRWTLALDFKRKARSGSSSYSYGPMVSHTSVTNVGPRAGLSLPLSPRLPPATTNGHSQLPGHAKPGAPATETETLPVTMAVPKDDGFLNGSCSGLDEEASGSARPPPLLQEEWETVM
Method: Competition Binding. Binding reactions were performed with HKRK-B28 cells or in COS-7 cells in 24-well plates. The cells were rinsed with 0.5 mL of binding buffer, and then treated successively with 100 μL binding buffer, 100 μL of binding buffer containing various amounts of unlabeled competitor ligand, and 100 μL of binding buffer containing ca. 100,000 cpm of ¹²⁵I-[Aib^{1,3},Nle⁸,Gln¹⁰,Har¹¹,Ala¹²,Trp¹⁴,Arg¹⁹,Tyr²¹]rPTH(1-21) (SEQ. ID. NO. 36) (ca. 26 fmol; final volume=300 μL). Incubations were 4 to 6 h at 4° C., at which time near equilibrium conditions were attained. Cells were then placed on ice, the binding medium was removed, and the monolayer was rinsed three times with 0.5 mL of cold binding buffer. The cells were subsequently lysed with 0.5 mL 5N NaOH and counted for radioactivity. For each tracer and in each experiment, the non-specific binding was determined as the radioactivity that bound in the presence of the same unlabeled peptide at a concentration of 1 μM, and was ˜1% of total radioactivity added for each tracer. The maximum specific binding (B₀) was the total radioactivity bound in the absence of competing ligand, corrected for nonspecific binding, and for each tracer, ranged from 8% to 20% of the total radioactivity added. Nonlinear regression was used to calculate binding IC₅₀ values (see below). […]

[3] = target: T2, recombinant P1R chimera expressed in …; assay: cell-based or functional assay
[4] = target: T2, recombinant P1R chimera expressed in …; assay: competition binding on B28 cells against 125I-PTH(1-21) tracer (SEQ ID NO 36)
Method: (§1) Competition Binding. Binding reactions were performed with HKRK-B28 cells or in COS-7 cells in 24-well plates. The cells were rinsed with 0.5 mL of binding buffer, and then treated successively with 100 μL binding buffer, 100 μL of binding buffer containing various amounts of unlabeled competitor ligand, and 100 μL of binding buffer containing ca. 100,000 cpm of ¹²⁵I-[Aib^{1,3},Nle⁸,Gln¹⁰,Har¹¹,Ala¹²,Trp¹⁴,Arg¹⁹,Tyr²¹]rPTH(1-21) (SEQ. ID. NO. 36) (ca. 26 fmol; final volume=300 μL). Incubations were 4 to 6 h at 4° C., at which time near equilibrium conditions were attained. Cells were then placed on ice, the binding medium was removed, and the monolayer was rinsed three times with 0.5 mL of cold binding buffer. The cells were subsequently lysed with 0.5 mL 5N NaOH and counted for radioactivity. For each tracer and in each experiment, the non-specific binding was determined as the radioactivity that bound in the presence of the same unlabeled peptide at a concentration of 1 μM, and was ˜1% of total radioactivity added for each tracer. The maximum specific binding (B₀) was the total radioactivity bound in the absence of competing ligand, corrected for nonspecific binding, and for each tracer, ranged from 8% to 20% of the total radioactivity added. Nonlinear regression was used to calculate binding IC₅₀ values (see below). Scatchard transformations of homologous competition binding data derived from studies with 26 fmol of ¹²⁵I-[Aib^{1,3},Nle⁸,Gln¹⁰,Har¹¹,Ala¹²,Trp¹⁴, Arg¹⁹,Tyr²¹]rPTH(1-21) (SEQ. ID. NO. 36) were employed for estimations of apparent equilibrium dissociation constant (kDapps) and total number of ligand binding sites (Bₘₐₓ), assuming a single class of binding sites and equal affinities of the iodinated and non iodinated ligand.

[5] = target: T2, recombinant P1R chimera expressed in …; assay: competition binding on HKRK-B28 cells against 125I-PTH(1-21) tracer (SEQ ID NO 36)
Method: as §1, with “Incubations” for “Competition Binding. Binding reactions were performed with HKRK-B28 cells or in COS-7 cells in 24-well plates. The cells were rinsed with 0.5 mL of binding buffer, and then treated successively with 100 μL binding buffer, 100 μL of binding buffer containing various amounts of unlabeled competitor ligand, and 100 μL of binding buffer containing ca. 100,000 cpm of ¹²⁵I-[Aib^{1,3},Nle⁸,Gln¹⁰,Har¹¹,Ala¹²,Trp¹⁴,Arg¹⁹,Tyr²¹]rPTH(1-21) (SEQ. ID. NO. 36) (ca. 26 fmol; final volume=300 μL). Incubations”, “ligand. […]” for “ligand.”

[6] = target: T3, wild-type human P1R transiently expressed in COS-7 cells (human, UniProt Q03431 27-593); assay: cell-based or functional assay
T3 sequence (looked up): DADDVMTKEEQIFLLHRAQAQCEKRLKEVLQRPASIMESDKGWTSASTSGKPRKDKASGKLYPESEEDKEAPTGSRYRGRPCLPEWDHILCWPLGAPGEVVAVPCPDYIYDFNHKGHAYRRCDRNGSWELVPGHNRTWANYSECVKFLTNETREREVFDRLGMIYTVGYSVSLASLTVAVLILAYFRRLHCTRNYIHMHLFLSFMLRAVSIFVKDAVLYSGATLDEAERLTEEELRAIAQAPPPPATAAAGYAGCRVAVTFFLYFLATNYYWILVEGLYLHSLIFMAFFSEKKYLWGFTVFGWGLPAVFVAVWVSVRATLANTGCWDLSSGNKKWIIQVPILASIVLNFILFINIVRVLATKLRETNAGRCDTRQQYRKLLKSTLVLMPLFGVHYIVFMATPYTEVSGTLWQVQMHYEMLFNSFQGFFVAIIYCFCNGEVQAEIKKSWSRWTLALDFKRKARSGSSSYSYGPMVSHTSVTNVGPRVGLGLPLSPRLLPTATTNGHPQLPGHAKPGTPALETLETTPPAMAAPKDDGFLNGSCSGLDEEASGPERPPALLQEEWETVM

B1: [Deg^1,3,Gln^10,Har^11,Ala^12,Trp^14]PTH(1-14)NH2 (peptide)
peptide: [Deg]V[Deg]EIQLMHQ[hArg]AKW-NH2
modifications: N-terminus assumed
SMILES: CC[C@H](C)[C@H](NC(=O)[C@H](CCC(=O)O)NC(=O)C(CC)(CC)NC(=O)[C@@H](NC(=O)C(N)(CC)CC)C(C)C)C(=O)N[C@@H](CCC(N)=O)C(=O)N[C@@H](CC(C)C)C(=O)N[C@@H](CCSC)C(=O)N[C@@H](Cc1c[nH]cn1)C(=O)N[C@@H](CCC(N)=O)C(=O)N[C@@H](CCCCNC(=N)N)C(=O)N[C@@H](C)C(=O)N[C@@H](CCCCN)C(=O)N[C@@H](Cc1c[nH]c2ccccc12)C(N)=O
notes: also called [Deg^1,3,M]PTH(1-14)
With B1 the “cAMP EC50 in LdelNt-2 cells” value [1] was 1400 nM, the “cAMP Emax over basal in LdelNt-2 cells (partial agonist behavior)” value [1] was 23 fold and the “fold higher affinity than the parent peptide” value [2] was 50 fold.

B2: [Ala^1,3,12,Gln^10,Har^11,Trp^14]PTH(1-14)NH2 (peptide)
peptide: AVAEIQLMHQ[hArg]AKW-NH2
modifications: N-terminus assumed
SMILES: CC[C@H](C)[C@H](NC(=O)[C@H](CCC(=O)O)NC(=O)[C@H](C)NC(=O)[C@@H](NC(=O)[C@H](C)N)C(C)C)C(=O)N[C@@H](CCC(N)=O)C(=O)N[C@@H](CC(C)C)C(=O)N[C@@H](CCSC)C(=O)N[C@@H](Cc1c[nH]cn1)C(=O)N[C@@H](CCC(N)=O)C(=O)N[C@@H](CCCCNC(=N)N)C(=O)N[C@@H](C)C(=O)N[C@@H](CCCCN)C(=O)N[C@@H](Cc1c[nH]c2ccccc12)C(N)=O
notes: also called [M]PTH(1-14); parent
In the case of B2, the “cAMP accumulation potency (EC50) in HKRK-B28 cells” value [3] is reported as 220 nM, the “cAMP potency (EC50)” value [3] is reported as 200 nM and the IC50 [4] is reported as ~3000 nM. For the same binder, the IC50 [5] was 27000 nM.

B3: [Ac5c^1,3,Gln^10,Har^11,Ala^12,Trp^14]PTH(1-14)NH2 (peptide)
peptide: [Ac5c]V[Ac5c]EIQLMHQ[hArg]AKW-NH2
notes: also called [Ac5c^1,3,M]PTH(1-14)
For B3, the “cAMP signaling, fold more potent than the parent peptide” value [3] was 30 fold and the “fold higher affinity than the parent peptide” value [2] was 20 fold.

B4: [M]PTH(1-14) analog in which alanine-3 is substituted with 1-aminocyclopropane-1-carboxylic acid (Ac3c) (peptide)
peptide: AV[Ac3c]EIQLMHQ[hArg]AKW-NH2
modifications: N-terminus assumed
SMILES: CC[C@H](C)[C@H](NC(=O)[C@H](CCC(=O)O)NC(=O)C1(NC(=O)[C@@H](NC(=O)[C@H](C)N)C(C)C)CC1)C(=O)N[C@@H](CCC(N)=O)C(=O)N[C@@H](CC(C)C)C(=O)N[C@@H](CCSC)C(=O)N[C@@H](Cc1c[nH]cn1)C(=O)N[C@@H](CCC(N)=O)C(=O)N[C@@H](CCCCNC(=N)N)C(=O)N[C@@H](C)C(=O)N[C@@H](CCCCN)C(=O)N[C@@H](Cc1c[nH]c2ccccc12)C(N)=O
notes: also called Ac3c^3-containing analog; Ac3c-3
With B4 the “cAMP-stimulating potency, fold increase over the parent analog” value [3] was < 2 fold, the “fold lower affinity than [M]PTH(1-14)” value [4] was 14 fold and the “fold reduced affinity relative to the parent analog” value [5] was ~10 fold.

B5: [Ac5c^1,Aib^3,Gln^10,Har^11,Ala^12,Trp^14]PTH(1-14)NH2 (peptide)
peptide: [Ac5c]V[Aib]EIQLMHQ[hArg]AKW-NH2
notes: also called [Ac5c^1,Aib^3,M]PTH(1-14)
With B5 the “cAMP potency (EC50)” value [3] was 0.9 nM, the “increase in cAMP levels relative to basal, peptide at 10 nM, HKRK-B28 cells” value [3] was 38 fold and the “stimulating adenylyl cyclase, fold more potent than [Aib^1,3,M]PTH(1-14)” value [3] was 2 fold. For the same binder, the “stimulating phospholipase C, fold more potent than [Aib^1,3,M]PTH(1-14)” value [6] was 2 fold, the “cAMP EC50 in LdelNt-2 cells” value [1] was 6.4 nM and the “increase in cAMP accumulation in LdelNt-2 cells” value [1] was 70 fold. The IC50 [4] was 100 nM and the “fold more potent than [Aib^1,3,M]PTH(1-14) for inhibiting tracer binding” value [4] was 2 fold.
